The values that follow come from paper PMC4110039.

Assay [1] has as its target HIV-1 JR2 F673L mutant Env (trimer of gp120-gp41 heterodimers) on pseudotyped virus (HIV-1 (isolate JR2)).
The target of assay [2] is HIV-1 JR2 wild type Env (trimer of gp120-gp41 heterodimers) on pseudotyped virus (HIV-1 (isolate JR2)).

C34 peptide: the IC50 of neutralization of pseudotyped virus (single cycle entry assay, TZM-bl cells); C34 acts on the NHR of gp41 in assay [1] was 0.9 µg/mL; in assay [2], 1.2 µg/mL.
